In publication PMC10583366, “OsCBL1 modulates rice nitrogen use efficiency via negative regulation of OsNRT2.2 by OsCCA1”:

Each binder was assayed against OsCCA1 (His-OsCCA1; Nhd1) (Oryza sativa, UniProt A0A0P0XBU0 1-719) (assay: EMSA; 10 mM Tris-HCl pH 7.5, 50 mM KCl, 1 mM DTT, 4 C, 40 min; 4% TBE-PAGE at 4 C, ethidium bromide stain). Conditions: protein: recombinant; tags: His (pET-28a); ATATCT (motif).
Sequence of OsCCA1 (His-OsCCA1; Nhd1) (A0A0P0XBU0 whole entry): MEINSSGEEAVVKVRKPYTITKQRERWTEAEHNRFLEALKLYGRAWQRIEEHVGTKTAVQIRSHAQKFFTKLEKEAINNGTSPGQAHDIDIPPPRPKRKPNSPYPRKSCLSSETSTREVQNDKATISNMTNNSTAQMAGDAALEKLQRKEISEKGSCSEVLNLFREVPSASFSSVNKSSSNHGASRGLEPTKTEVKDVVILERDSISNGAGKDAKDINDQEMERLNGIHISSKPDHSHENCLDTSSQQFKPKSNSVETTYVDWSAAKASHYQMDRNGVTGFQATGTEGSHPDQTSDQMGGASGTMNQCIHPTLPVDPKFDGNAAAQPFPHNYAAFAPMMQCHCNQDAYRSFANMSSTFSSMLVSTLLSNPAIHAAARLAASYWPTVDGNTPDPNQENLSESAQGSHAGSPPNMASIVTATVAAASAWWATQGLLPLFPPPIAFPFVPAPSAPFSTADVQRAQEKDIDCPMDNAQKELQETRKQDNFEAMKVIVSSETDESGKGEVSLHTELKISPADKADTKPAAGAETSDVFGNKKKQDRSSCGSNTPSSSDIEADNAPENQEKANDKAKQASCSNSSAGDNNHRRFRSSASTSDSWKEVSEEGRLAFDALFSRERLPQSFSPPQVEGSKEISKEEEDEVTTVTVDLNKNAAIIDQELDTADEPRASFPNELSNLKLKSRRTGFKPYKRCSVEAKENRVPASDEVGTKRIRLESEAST

| Binder | binding result |
| --- | --- |
| P6 (dsDNA) DNA 1: TAAAAAATACCTGCAGGTGCTCTAGTTCAACTGAAGGGCCAGATTTAGCAATATCTGAGTCCTTCAAATAAATTCATCAACTAACAAACTTCAACCGAAG DNA 2: CTTCGGTTGAAGTTTGTTAGTTGATGAATTTATTTGAAGGACTCAGATATTGCTAAATCTGGCCCTTCAGTTGAACTAGAGCACCTGCAGGTATTTTTTA | binds |
| P7 (dsDNA) DNA 1: ATATGATGTGTATGGGAATTGGGATGCTGAAAACAAATGCAACTGGACACATATCTGCAACTTGTAAATAACTTTTATTTCTTTTAATGGAAAAAATGTG DNA 2: CACATTTTTTCCATTAAAAGAAATAAAAGTTATTTACAAGTTGCAGATATGTGTCCAGTTGCATTTGTTTTCAGCATCCCAATTCCCATACACATCATAT | binds |
| P8 (dsDNA) DNA 1: CTTCAGGCCGTCATGAAAAAAAACCAGTGCATATCTCATGGCAAGAAGAAGTGCAGGTTGTGAA DNA 2: TTCACAACCTGCACTTCTTCTTGCCATGAGATATGCACTGGTTTTTTTTCATGACGGCCTGAAG | binds |
